Target: Growth differentiation factor 11 (GDF11) (human) (UniProt O95390)
Assay: cell-based or functional assay

Chain of UniProt O95390 (O95390 299-407 limits assumed): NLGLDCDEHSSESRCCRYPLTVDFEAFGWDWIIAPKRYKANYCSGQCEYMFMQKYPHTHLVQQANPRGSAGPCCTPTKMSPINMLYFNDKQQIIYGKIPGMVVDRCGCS

An apoptosis in primary AML blasts, subjects 5 and 6 of 50 % apoptosis was found for “anti-human GDF11 antibody ab71347 (Abcam)” in this work.
